From the RNAGym collection of RNA variant scans (doi:10.7554/elife.80360) come the findings set out here.

Sequences and labels used below:
B1: Hairpin Ribozyme (parent)
chain: GUCCUCUUUCACGUGCGCGUGAAAGAGAGAAGUGAACCAGAGAAACACACGUUGUGGUAUAUUACCUGGUA

Variants of B1 are the subject of the series. The series is described as follows: self-cleavage, relative activity (ratio to wild type); higher = more cleavage; co-transcriptional.
For G25U A59G, the self-cleavage was determined as 0.108.

As for A24U A59C, the self-cleavage was 0.139. With A23U U33C the figure was 0.144. With G25U C38A the figure was 0.216; with G25U G54A, 0.496. With G25U A41U the figure was 1.08. As to A24C A28U, the self-cleavage was 0.592.

As to A24C A28G, the self-cleavage amounted to 1.13. With A24U A71C the figure was 1.27; with A24G G27U, 0.303.

For A24U C65G, the self-cleavage came out at 0.302. With A24U C66G the figure was 0.207. With A24U C66U the figure was 0.412; with A24U C66A, 0.137.

G25U A43C: the self-cleavage was 0.166. G25A G42C: the self-cleavage worked out at 0.182. With G25U A49G the figure was 0.217; with G25U A49C, 0.179; with A24G U58G, 0.517. With A24G U58A the figure was 0.628; with A24G U58C, 0.804; with A24U U63A, 0.237.

For the variant A24U U63G, the self-cleavage was found to be 0.146. With A23U A35C, the self-cleavage was 0.848. With A23U A35G the figure was 0.967; with A24C G51U, 0.878; with G25A A43C, 0.136.

As for G25A A43U, the self-cleavage worked out at 0.186. Regarding A23U C50U, the self-cleavage is 0.376. Turning to A24G A59U, the self-cleavage is 0.153. With A24G A59C the figure was 0.213; with G25A U60A, 0.626.

Turning to G25A U60C, the self-cleavage came to 0.976. As to G25C G29C, the self-cleavage amounted to 0.166. With G25C G29U the figure was 0.188; with A23U G27C, 0.148. With G25A A49C the figure was 0.232. With A24C A59C the figure was 0.209.

For the variant A24C G34A, the self-cleavage worked out at 0.895. For A24G A61C, the self-cleavage worked out at 0.203. With G25A U62G the figure was 0.125. With G25U A39G the figure was 0.191. With G25C G32C the figure was 0.116; with A24C U55G, 0.266; with G25A G57U, 0.113. Take A24C U58A: the self-cleavage was 0.265.

In the case of A24C U58G, the self-cleavage was determined as 0.761. With G25U A64G the figure was 0.428; with G25U A64U, 0.142. As to A24G A28G, the self-cleavage was 0.882. With A24U G54U the figure was 0.476. With G25C A44C the figure was 0.174. With A23U A41G the figure was 0.749; with G25C A49C, 0.136; with A24C G68C, 0.255. In the case of A24C G68U, the self-cleavage was 0.223.

With G25C U52G, the self-cleavage came out at 0.356.

Take G25C U52A: the self-cleavage was 0.594. As for A24G C48A, the self-cleavage is 0.191. With A24C A44C the figure was 0.0908. Consider G25A A41U, for which the self-cleavage is 0.85. Take G25A A41C: the self-cleavage worked out at 0.814.

As for G25C G51U, the self-cleavage was 0.624. With G25C A31G the figure was 0.153.

On to G25C G56U, for which the self-cleavage was determined as 0.153. With G25C G56C the figure was 0.148; with G25C A35U, 0.228; with A24C G27C, 0.228. For the variant A23U A49C, the self-cleavage came to 0.117. With A24C A45U the figure was 0.0791. For A24U C48G, the self-cleavage amounted to 0.245. For the variant A23U U70C, the self-cleavage turned out to be 0.909.

For the variant G25U C46G, the self-cleavage came out at 0.153.

On to A23U G34U, for which the self-cleavage is 1.34.

As for A23U A36C, the self-cleavage is 0.596.

With A24C A43G, the self-cleavage stood at 0.157.

A24C A43C: the self-cleavage came out at 0.0956. With A23U U55A the figure was 0.255; with A23U U55G, 0.448; with A24U U70A, 0.877. With A24U U70C the figure was 0.743; with A24U U70G, 0.533. For the variant G25A C50U, the self-cleavage is 0.315. With A24U G57A the figure was 0.196.

Turning to A24G C46G, the self-cleavage turned out to be 0.105. With A24G C46A the figure was 0.107; with A24U C50U, 0.307. Consider G25A A71G, for which the self-cleavage came out at 0.66. With G25A A71U the figure was 0.553; with A23U C66A, 0.294.

As for G25A C66G, the self-cleavage was found to be 0.133. With G25C A47C the figure was 0.217. For the variant G25C A28U, the self-cleavage amounted to 0.327. Take A24G U53G: the self-cleavage stood at 0.591.

Take A24G A41U: the self-cleavage was 1.05. With A23U G57C the figure was 0.211. With A23U G57U the figure was 0.307; with A24G U70G, 0.834; with G25C A43G, 0.116.

As to A24U U60G, the self-cleavage turned out to be 0.531. Consider A24U U60A, for which the self-cleavage amounted to 0.57.

Regarding A24C G25C, the self-cleavage turned out to be 0.315.

In the case of G25C U53A, the self-cleavage was found to be 0.497. With G25A A39G the figure was 0.192; with G25A A39U, 0.285; with A23U U52C, 0.677. On to A23U U52A, for which the self-cleavage is 0.947. As to A23U A31G, the self-cleavage worked out at 0.805. With A23U A31C the figure was 0.147.

For the variant G25A C46G, the self-cleavage worked out at 0.135.

Regarding G25A A36G, the self-cleavage came out at 0.605. With G25A A36C the figure was 0.301. With G25A A45G the figure was 0.24; with A24U C37G, 0.292; with A24U C37U, 0.734. In the case of A24G U62A, the self-cleavage was determined as 0.316. Regarding A23U C38U, the self-cleavage was determined as 0.312.

With A24U A41C, the self-cleavage was 1.1. With A24U A41U the figure was 1.17. With A24U G42A the figure was 0.257. With A24C A41U the figure was 0.996; with A24C A41C, 1.01. In the case of G25C A26U, the self-cleavage was found to be 0.248. For G25C A26C, the self-cleavage stood at 0.199.

For the variant G25U G34A, the self-cleavage is 0.897. With A24C A31G the figure was 0.66; with A24C G42A, 0.195; with A24C G42C, 0.342. With G25C G57C, the self-cleavage was found to be 0.12. With G25C G57U the figure was 0.216. With G25C A71C the figure was 1.02; with A24U G69U, 0.192; with A23U A24C, 1.02. Turning to G25C G42C, the self-cleavage amounted to 0.236. With G25C G42U, the self-cleavage is 0.182. With G25C G27C the figure was 0.171; with G25U A61G, 0.178; with G25U A61C, 0.231. With A24G U52C the figure was 0.762.

With A24G U52G, the self-cleavage came out at 0.687.

For A23U A59U, the self-cleavage is 0.189. With A23U A59C the figure was 0.0742; with G25C A39G, 0.168. In the case of G25C U70A, the self-cleavage was 0.574. G25C U70C: the self-cleavage stood at 0.401. With G25U A31C the figure was 0.176; with G25U A31U, 0.166. As to G25U A47U, the self-cleavage came out at 0.205. With A24C C50G the figure was 0.326. In the case of A24C G57U, the self-cleavage was determined as 0.14. With A24C G57C the figure was 0.131.

G25C G54C: the self-cleavage is 0.139. With A24G U60G the figure was 0.661. With A24G U60A the figure was 0.861; with G25C C48U, 0.187; with G25C C48A, 0.129.

G25C C48G: the self-cleavage came to 0.127.

As for A24U A30U, the self-cleavage amounted to 0.168. With A24U A30C the figure was 0.332; with A23U A43C, 0.141.

As for G25C C38A, the self-cleavage was determined as 0.0929. For G25A U55A, the self-cleavage worked out at 0.149. As to A24C U67A, the self-cleavage worked out at 0.185. Regarding A24C U67G, the self-cleavage stood at 0.27. With A24C A36U the figure was 0.556.

Take G25U A45C: the self-cleavage turned out to be 0.219. With A24G C37A the figure was 0.345.
